Values quoted from earlier work in paper PMC2660313.

Molecular target: Dystrophin WW domain+EF-hand (Drosophila melanogaster) (UniProt Q9VDW6)
Sequence (Q9VDW6 2840-3106): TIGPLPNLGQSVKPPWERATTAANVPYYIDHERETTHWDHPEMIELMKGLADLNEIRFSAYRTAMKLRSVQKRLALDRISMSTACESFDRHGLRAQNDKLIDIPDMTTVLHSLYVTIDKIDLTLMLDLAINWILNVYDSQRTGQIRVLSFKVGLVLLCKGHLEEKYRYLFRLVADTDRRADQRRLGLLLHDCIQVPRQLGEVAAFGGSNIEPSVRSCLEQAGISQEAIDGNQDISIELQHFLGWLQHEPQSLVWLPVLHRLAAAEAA

Kd: 248 µM
Substance: p53 peptide (negative control) (from UniProt P04637)
